Results: patent US20070184522A1, “Cell death modulation via antagonists of Fasl and Fas activation” (University of Pittsburgh of the Commonwealth System of …, priority 2004, published 2007)

How the values were obtained:
[1] = tested on: Caspase 3 activation in Jurkat cells; test: Cleaved Caspase 3 Western blot in apoptotic Jurkat cells; type: cell-based, human; settings: Fas-ligand
Description: For FIG. 4a, Jurkat cells (1.5×10^5) were overnight treated in triplicate with 5 ng/ml of crosslinked human Fas ligand with or without 5 μg/ml of recombinant AlphaMet or 1 μg/ml of the indicated polypeptides. Percent apoptosis was determined by Trypan Blue staining using a hemocytometer. The data are representative and were repeated at least four times. […] The 17 kDa fragment of cleaved Caspase 3 is visualized by this antibody. The blot was reprobed for β-actin as a loading control. For FIG. 4c, serum deprived Hepa 1-6 cells (3×10^5) were overnight treated with 1 μg/ml of crosslinked mouse Fas ligand with or without AlphaMet or the indicated polypeptide. Media were collected and centrifuged to pellet the dead cells. […] The data in FIG. 4c represents three independent experiments.
To provide biochemical evidence that AlphaMet inhibited FasL-mediated apoptosis, the activation of Caspase 3, a down stream executioner in Fas mediated apoptosis, was analyzed in apoptotic Jurkat cells.

[2] = tested on: endogenous Fas from Jurkat and Hepa 1-6 cells; test: Immunoprecipitation with anti-Fas antibody after adding AlphaMet proteins to Jurkat and Hepa 1-6 cells, Western blot with anti-His; type: binding; settings: proteins added to Jurkat cells and Hepa 1-6 cells
Description: The Met alpha but not beta chain binds to Fas (FIG. 1a). Various regions of the mouse Met cDNA corresponding to the alpha chain or the extra-cellular portion of the Met beta chain were cloned into expression vectors (pCRT7 TOPO/AlphaMet or pCRT7 TOPO/beta chain) and subjected to in vitro transcription/translation by a rabbit reticolucyte lysate translation system. Empty vector was included in each experiment as a control. The expressed proteins were labeled with ^35S-Methionine. Pull down assays were performed using Fas-Fc, a chimeric molecule which lacks the interacellular cytoplasmic domain and protein-A agarose as described in Wang et al., 2002. […] FIG. 1d depicts the amino acid sequence alignment of alpha chain with FasL, determined using the CLUSTALW, SIM+LALNVIEW, and ALIGN at ExPASy Proteomic Tools (available on the internet at us.expresly.org/tools). […] Recombinant His-tagged AlphaMet or its mutant version were expressed in E. coli, purified with chromatography, and subjected to Fas-Fc (lanes labeled Fas) or control IgG pull down experiments, and detected by Western blot using anti-His antibody that recognizes C-terminal His. […] After washing the wells, anti-human […]-HRP conjugates (1:20,000) were added to detect the bound Fas-Fc using TMD dye and the OD value was determined at a wavelength of 450 nm. […]

[3] = target: T1, Fas-Fc (extracellular part of Fas) (Mus musculus, UniProt P25446); test: Fas-Fc pull down assay with protein-A agarose; type: binding
T1 construct: purchased R&D
T1 sequence (P25446 22-169 limits assumed): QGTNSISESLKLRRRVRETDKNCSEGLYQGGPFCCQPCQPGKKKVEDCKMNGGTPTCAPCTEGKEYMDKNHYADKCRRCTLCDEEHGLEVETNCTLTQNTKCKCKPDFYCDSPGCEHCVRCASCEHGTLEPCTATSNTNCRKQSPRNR
Description: The Met alpha but not beta chain binds to Fas (FIG. 1a). Various regions of the mouse Met cDNA corresponding to the alpha chain or the extra-cellular portion of the Met beta chain were cloned into expression vectors (pCRT7 TOPO/AlphaMet or pCRT7 TOPO/beta chain) and subjected to in vitro transcription/translation by a rabbit reticolucyte lysate translation system. Empty vector was included in each experiment as a control. The expressed proteins were labeled with ^35S-Methionine. Pull down assays were performed using Fas-Fc, a chimeric molecule which lacks the interacellular cytoplasmic domain and protein-A agarose as described in Wang et al., 2002. FIG. 1b is a schematic presentation of the Met alpha chain and its mutant version used to map the region interacting with Fas. The C-terminus of each construct contains a hexa-Histidine tag for ease of detection. Start cordon ATG was added to the N-terminally truncated constructs. The YLGA (SEQ ID NO:1) motif mutation was prepared by PCR, in which YLGA (SEQ ID NO:1) was replaced by DHER (SEQ ID NO:24). […] In vitro translated ^35S-methionine labeled truncated/mutated AlphaMet proteins were pulled down with 2 μg of Fas-Fc or the same amount of IgG. Lane 1: 10% of AlphaMet input; Lane 2: AlphaMet with IgG control; Lanes 3 to 8: pull down of various truncated AlphaMet proteins; N-terminal 1-106 residues; C-terminal truncated, residues 1-210; alpha chain, residues 1-306; alpha chain with transmembrane domain, 1-338; N-terminally truncated alpha chain, residues 100-306; and N-terminally truncated with addition of the transmembrane domain 100-338, respectively. FIG. 1d depicts the amino acid sequence alignment of alpha chain with FasL, determined using the CLUSTALW, SIM+LALNVIEW, and ALIGN at ExPASy Proteomic Tools (available on the internet at us.expresly.org/tools). The numbers indicate the amino acid residues of the indicated protein. […] Recombinant His-tagged AlphaMet or its mutant version were expressed in E. coli, purified with chromatography, and subjected to Fas-Fc (lanes labeled Fas) or control IgG pull down experiments, and detected by Western blot using anti-His antibody that recognizes C-terminal His. This antibody also recognizes the Fas-Fc which is also tagged at the C-terminus by His. […] Purified recombinant AlphaMet protein (approximately 10 μg) was mixed with Hepa 1-6 cells or Jurkat cell lysates and subjected to immunoprecicitation using anti-Fas antibody or control IgG followed by Western blot using anti His-tag antibody as a probe. […] After washing the wells, anti-human […]-HRP conjugates (1:20,000) were added to detect the bound Fas-Fc using TMD dye and the OD value was determined at a wavelength of 450 nm. […]

B1: alpha subunit of Met (AlphaMet), amino acid residues 1 to 306, His-tagged (receptor, mouse)
chain: MKAPTVLAPGILVLLLSLVQRSHGECKEALVKSEMNVNMKYQLPNFTAETPIQNVVLHGHHIYLGATNYIYVLNDKDLQKVSEFKTGPVLEHPDCLPCRDCSSKANSSGGVWKDNINMALLVDTYYDDQLISCGSVNRGTCQRHVLPPDNSADIQSEVHCMFSPEEESGQCPDCVVSALGAKVLLSEKDRFINFFVGNTINSSYPPGYSLHSISVRRLKETQDGFKFLTDQSYIDVLPEFLDSYPIKYIHAFESNHFIYFLTVQKETLDAQTFHTRIIRFCSVDSGLHSYMEMPLECILTEKRRKRHHHHHH
[1]
  Caspase 3 activation (17 kDa cleaved form): markedly reduced
[2]
  co-precipitation with anti-Fas: could be co-precipitated with anti-Fas
[3]; in vitro translated 35S-labeled proteins, autoradiography, listed as Met alpha chain
  Fas binding in Fas-Fc pull down: bound specifically to the Fas molecule
[3]; in vitro translated 35S-labeled proteins, autoradiography, listed as full length AlphaMet
  Fas binding in Fas-Fc pull down: bound Fas very efficiently
[3]; recombinant His-tagged proteins expressed and purified in E. coli, Western blot anti-His
  Fas binding in Fas-Fc pull down: bound avidly
